In article PMC8930625 (Journal of inorganic biochemistry, 2022):

T1: Methyl-Coenzyme M Reductase (MCR) chain A (Methanothermobacter marburgensis, UniProt P11558 1-550)
T1 sequence (looked up): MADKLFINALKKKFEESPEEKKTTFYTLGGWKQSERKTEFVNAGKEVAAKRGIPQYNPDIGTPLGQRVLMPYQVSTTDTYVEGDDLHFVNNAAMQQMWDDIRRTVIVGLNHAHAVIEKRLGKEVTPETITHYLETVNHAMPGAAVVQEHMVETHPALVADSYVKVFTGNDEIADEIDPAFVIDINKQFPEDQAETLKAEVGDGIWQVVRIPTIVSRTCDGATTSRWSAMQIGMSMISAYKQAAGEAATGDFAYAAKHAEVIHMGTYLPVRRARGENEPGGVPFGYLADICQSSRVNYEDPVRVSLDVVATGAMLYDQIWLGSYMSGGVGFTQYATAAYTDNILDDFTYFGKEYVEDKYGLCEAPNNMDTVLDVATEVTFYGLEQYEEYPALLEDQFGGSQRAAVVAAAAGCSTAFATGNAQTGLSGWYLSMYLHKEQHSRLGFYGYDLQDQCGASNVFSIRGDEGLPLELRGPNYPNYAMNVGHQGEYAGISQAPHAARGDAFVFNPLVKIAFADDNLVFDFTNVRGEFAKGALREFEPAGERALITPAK

B1: Methyl-Coenzyme M Reductase (MCR) chain C (natural protein, Methanothermobacter marburgensis, UniProt P11562 1-249, looked up)
chain: MAQYYPGTTKVAQNRRNFCNPEYELEKLREISDEDVVKILGHRAPGEEYPSVHPPLEEMDEPEDAIREMVEPIDGAKAGDRVRYIQFTDSMYFAPAQPYVRSRAYLCRYRGADAGTLSGRQIIETRERDLEKISKELLETEFFDPARSGVRGKSVHGHSLRLDEDGMMFDMLRRQIYNKDTGRVEMVKNQIGDELDEPVDLGEPLDEETLMEKTTIYRVDGEAYRDDVEAVEIMQRIHVLRSQGGFNLE
B2: Methyl-Coenzyme M Reductase (MCR) chain B (natural protein, Methanothermobacter marburgensis, UniProt P11560 1-443, looked up)
chain: MAKFEDKVDLYDDRGNLVEEQVPLEALSPLRNPAIKSIVQGIKRTVAVNLEGIENALKTAKVGGPACKIMGRELDLDIVGNAESIAAAAKEMIQVTEDDDTNVELLGGGKRALVQVPSARFDVAAEYSAAPLVTATAFVQAIINEFDVSMYDANMVKAAVLGRYPQSVEYMGANIATMLDIPQKLEGPGYALRNIMVNHVVAATLKNTLQAAALSTILEQTAMFEMGDAVGAFERMHLLGLAYQGMNADNLVFDLVKANGKEGTVGSVIADLVERALEDGVIKVEKELTDYKVYGTDDLAMWNAYAAAGLMAATMVNQGAARAAQGVSSTLLYYNDLIEFETGLPSVDFGKVEGTAVGFSFFSHSIYGGGGPGIFNGNHIVTRHSKGFAIPCVAAAMALDAGTQMFSPEATSGLIKEVFSQVDEFREPLKYVVEAAAEIKNEI
B3: Methyl-Coenzyme M Reductase (MCR) heterotrimer of chains A, B and C, MCRred1-silent Ni(II) form (complex, Methanothermobacter marburgensis)
chain 1: T1 sequence (looked up)
chain 2: B2 chain
chain 3: B1 chain

Key:
Test in all cases: crystal structure
[1] = target: T1, Methyl-Coenzyme M Reductase (MCR) chain …
[2] = target: B2
crystal structure = target: the molecule itself

## B1
[1]
  binding result: binds
[2]
  binding result: binds

## B2
[1]
  binding result: binds

## B3
Crystal structure
  stoichiometry N: 2
